Laboratory results as given in article PMC12225155.

Target: importin α5 (UniProt P52294)
Assay: co-immunoprecipitation, western blot
Settings: reference: KIAA1429-WT; sites S1579

- binding against the reference: stronger
Substance: KIAA1429 (VIRMA) (from UniProt Q69YN4) KIAA1429-SA (S1579A)
